These are literature values, as cited in article PMC6289173.

For the data set, the target named is endophilin (UniProt O35179).

With endophilin (from UniProt O35179), the Kd was 10 µM.

As usually defined, the Kd is a measure of binding affinity in units of concentration.
